Measured values from PMC8489136, “LncRNA MALAT1 was regulated by HPV16 E7 independently of pRB in cervical cancer cells”.

B1: MALAT1 promoter probe2 (dsDNA)
DNA 1: AGCTGCCACCCCGCCCCCATGCCAT
DNA 2: ATGGCATGGGGGCGGGGTGGCAGCT
modifications: 5'-biotin
B2: MALAT1 promoter probe1 (dsDNA)
DNA 1: CAGGCGTTAGGGCGGGGCGCGCGTGC
DNA 2: GCACGCGCGCCCCGCCCTAACGCCTG
modifications: 5'-biotin

Biological target: HPV16 E7 (His-E7) (Human papillomavirus type 16, UniProt P03129 1-98)
Assay: EMSA; inhibited by excess unlabeled probe; EMSA buffer, salt, pH and temperature not given; UV crosslinking: 20 min incubation in binding buffer (composition not given), 254 nm 30 min on ice
Conditions: protein: recombinant; tags: His; label: biotin; blunt

HPV16 E7 (His-E7), sequence (P03129 whole entry): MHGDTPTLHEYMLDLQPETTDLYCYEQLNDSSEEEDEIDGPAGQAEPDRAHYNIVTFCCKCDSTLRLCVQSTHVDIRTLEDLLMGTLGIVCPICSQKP

Row | Binder | binding result
1 | B1 | binds
2 | B2 | binds
